These results are taken from US5770384, “Method for determining compound interaction with E2 binding proteins” (New England Medical Center Hospitals, Inc, dated 1998).

The test deals with BPV-1 E2 protein, wild type, full length (amino acids 1 to 410) (bovine papillomavirus (BPV-1), UniProt P03122). The experiment in a line: alternative two hybrid assay in yeast, LexA/LacZ reporter pSH18-34, GAL/XGAL plate.

B1: LexA DBD alone (YEplac181GLexA202) (other)
chain: MKALTARQQEVFDLIRDHISQTGMPPTRAEIAQRLGFRSPNAAEEHLKALARKGVIEIVSGASRGIRLLQEEEEGLPLVGRVAAGEPLLAQQHIEGHYQVDPSLFKPNADFLLRVSGMSMKDIGIMDGDLLAVHKTQDVRNGQVVVARIDDEVTVKRLKKQGNKVELLPENSEFKPIVVDLRQQSFTIEGLAVGVIRNGDWL
As to B1, the binding result was “no binding”.
